Values quoted from earlier work as cited in patent US7931890B2, “Targeted combination immunotherapy of cancer and infectious diseases” (Immunomedics, Inc., priority 1996, dated 2011).

Legend:
[1] = Rosebrough 1993; cited from earlier work
streptavidin = streptavidin (Streptomyces avidinii, UniProt P22629); conditions: streptavidin-biotin system; Rosebrough 1993; cited from earlier work
CEA = target: T1, CEA (Homo sapiens, UniProt P06731); conditions: Hansen et al. 1993; cited from earlier work
T1 sequence (P06731 35-676): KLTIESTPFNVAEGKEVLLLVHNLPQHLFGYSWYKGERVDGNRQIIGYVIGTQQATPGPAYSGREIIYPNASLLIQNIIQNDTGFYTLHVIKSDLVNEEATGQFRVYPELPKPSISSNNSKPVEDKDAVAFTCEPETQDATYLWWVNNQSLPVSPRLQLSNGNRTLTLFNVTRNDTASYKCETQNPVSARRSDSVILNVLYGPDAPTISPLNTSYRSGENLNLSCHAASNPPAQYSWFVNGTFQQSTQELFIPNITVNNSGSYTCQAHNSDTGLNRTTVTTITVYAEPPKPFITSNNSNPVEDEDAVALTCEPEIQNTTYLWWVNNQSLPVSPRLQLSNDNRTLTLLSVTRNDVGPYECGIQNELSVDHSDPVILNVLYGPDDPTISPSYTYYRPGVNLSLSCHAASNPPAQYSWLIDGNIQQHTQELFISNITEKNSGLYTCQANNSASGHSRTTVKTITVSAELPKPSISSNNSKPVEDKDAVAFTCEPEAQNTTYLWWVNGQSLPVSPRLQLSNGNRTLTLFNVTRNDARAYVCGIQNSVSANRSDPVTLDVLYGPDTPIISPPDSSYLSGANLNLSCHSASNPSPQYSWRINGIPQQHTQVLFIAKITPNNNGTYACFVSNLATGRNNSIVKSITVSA

Sequence of streptavidin (P22629 25-183): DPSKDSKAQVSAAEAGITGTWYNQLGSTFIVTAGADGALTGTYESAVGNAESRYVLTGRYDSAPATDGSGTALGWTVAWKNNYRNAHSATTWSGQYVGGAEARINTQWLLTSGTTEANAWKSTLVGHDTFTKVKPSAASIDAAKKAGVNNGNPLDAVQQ

## avidin: biotin-binding protein found in egg whites
[1]
  pI: > 10

## O=C(O)CCCC[C@@H]1SC[C@@H]2NC(=O)N[C@@H]21 [biotin]
streptavidin
  Ka: 10^15 M^−1

## MN-14: second generation CEA-antibody
CEA
  affinity for CEA relative to first generation NP-4: ten times more affinity
